# Measurements taken from patent US9315563B2, “Peptides that inhibit angiotensin converting enzyme and peptides with antioxidant activity purified from ovotransferrin and methods of producing and using the same” (The Governors of the University of Alberta, priority 2009, dated 2016).
# B1: Unhydrolyzed ovotransferrin: egg ovotransferrin, un-hydrolyzed parent protein (protein, UniProt P02789 20-705, looked up)
# Ovotransferrin: APPKSVIRWCTISSPEEKKCNNLRDLTQQERISLTCVQKATYLDCIKAIANNEADAISLDGGQAFEAGLAPYKLKPIAAEVYEHTEGSTTSYYAVAVVKKGTEFTVNDLQGKTSCHTGLGRSAGWNIPIGTLLHRGAIEWEGIESGSVEQAVAKFFSASCVPGATIEQKLCRQCKGDPKTKCARNAPYSGYSGAFHCLKDGKGDVAFVKHTTVNENAPDQKDEYELLCLDGSRQPVDNYKTCNWARVAAHAVVARDDNKVEDIWSFLSKAQSDFGVDTKSDFHLFGPPGKKDPVLKDLLFKDSAIMLKRVPSLMDSQLYLGFEYYSAIQSMRKDQLTPSPRENRIQWCAVGKDEKSKCDRWSVVSNGDVECTVVDETKDCIIKIMKGEADAVALDGGLVYTAGVCGLVPVMAERYDDESQCSKTDERPASYFAVAVARKDSNVNWNNLKGKKSCHTAVGRTAGWVIPMGLIHNRTGTCNFDEYFSEGCAPGSPPNSRLCQLCQGSGGIPPEKCVASSHEKYFGYTGALRCLVEKGDVAFIQHSTVEENTGGKNKADWAKNLQMDDFELLCTDGRRANVMDYRECNLAEVPTHAVVVRPEKANKIRDLLERQEKRFGVNGSEKSKFMMFESQNKDLLFKDLTKCLFKVREGTTYKEFLGDKFYTVISSLKTCNPSDILQMCSFLEGK
# Test: ORAC-FL assay (oxygen radical absorbance capacity)
# Settings: ovotransferrin hydrolysates
# Procedure: Briefly, 80 mM AAPH and 200 nM fluorescein in 75 mM phosphate buffer at pH 7.4 were prepared for each experiment. For each run, 20 μL of antioxidant, and 80 μL of phosphate buffer (or 100 μL of Trolox standard solutions at final concentrations of 1 to 8 μM) were placed in wells of a 96-well microplate, followed by addition of 50 μL of the fluorescein solution. The mixture was preincubated for 15 min at 37° C. 50 μL of AAPH solution was added rapidly using a multichannel pipet. The microplate was immediately placed in a Fluoroskan Ascent microplate reader (Thermo Electron Corporation) with 485-P excitation and 538-P emission filters and the fluorescence recorded every minute for 100 min. All readings were recorded using Fluoroskan Ascent software. The area under the curve of fluorescence decay (AUC) was calculated using Graphpad prism software (trial version). Regression equations between AUC and antioxidant concentrations were calculated for all the samples. The ORAC value was calculated by dividing the slope of sample regression curve by the slope of Trolox regression curve. Final ORAC values were expressed as μmol of Trolox equivalent/mg of protein or peptide.
molecule,measurement,value
B1,ORAC,0.21 ± 0.04 µmol/mg
